Laboratory results taken from US20180073039A1 (SINAI HEALTH SYSTEM, published 2018).
Each block holds one molecule with its values, some of them ahead of it.

Experiments:
[1] = system: ubiquitylated HA-PALB2 (1-103) (in vitro ubiquitylated by CRL3-KEAP1)
HA-PALB2 (1-103) = system: T1, HA-PALB2 (1-103)
T1 sequence: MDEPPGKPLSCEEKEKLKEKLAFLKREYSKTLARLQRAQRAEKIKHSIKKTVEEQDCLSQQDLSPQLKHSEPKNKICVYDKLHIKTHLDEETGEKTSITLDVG

[2] = molecular target: T2, BRCA2 (Homo sapiens breast cancer 2) (human, UniProt P51587 1-3418); assay: PALB2 immunoprecipitation from 293T extracts synchronized in S or G1, immunoblot
T2 construct: Endogenous protein in 293T extracts, detected by immunoblot

Molecule: glutathione S-transferase (GST)-USP11 (Sus scrofa (pig) USP11)
deubiquitylation reaction, immunoblot [1]: recombinant USP11 can directly de-ubiquitylate PALB2 (1-103)

Molecule: recombinant CRL3-KEAP1 (neddylated CUL3/RBX1 with GST-mKEAP1)
in vitro ubiquylation of HA-PALB2 (1-103), immunoblot and mass spectrometry (HA-PALB2 (1-103)): ubiquitylation of the N-terminus of PALB2 (residues 1-103; fused to a haemagglutinin (HA) epitope tag) could be readily reconstituted by recombinant CRL3-KEAP1

binding result [2]: binds
B1: PALB2 (partner and localizer of BRCA2) (other)
chain: MDEPPGKPLSCEEKEKLKEKLAFLKREYSKTLARLQRAQRAEKIKHSIKKTVEEQDCLSQQDLSPQLKHSEPKNKICVYDKLHIKTHLDEETGEKTSITLDVGPESFNPGDGPGGLPIQRTDDTQEHFPHRVSDPSGEQKQKLPSRRKKQQKRTFISQERDCVFGTDSLRLSGKRLKEQEEISSKNPARSPVTEIRTHLLSLKSELPDSPEPVTEINEDSVLIPPTAQPEKGVDTFLRRPNFTRATTVPLQTLSDSGSSQHLEHIPPKGSSELTTHDLKNIRFTSPVSLEAQGKKMTVSTDNLLVNKAISKSGQLPTSSNLEANISCSLNELTYNNLPANENQNLKEQNQTEKSLKSPSDTLDGRNENLQESEILSQPKSLSLEATSPLSAEKHSCTVPEGLLFPAEYYVRTTRSMSNCQRKVAVEAVIQSHLDVKKKGFKNKNKDASKNLNLSNEETDQSEIRMSGTCTGQPSSRTSQKLLSLTKVSSPAGPTEDNDLSRKAVAQAPGRRYTGKRKSACTPASDHCEPLLPTSSLSIVNRSKEEVTSHKYQHEKLFIQVKGKKSRHQKEDSLSWSNSAYLSLDDDAFTAPFHRDGMLSLKQLLSFLSITDFQLPDEDFGPLKLEKVKSCSEKPVEPFESKMFGERHLKEGSCIFPEELSPKRMDTEMEDLEEDLIVLPGKSHPKRPNSQSQHTKTGLSSSILLYTPLNTVAPDDNDRPTTDMCSPAFPILGTTPAFGPQGSYEKASTEVAGRTCCTPQLAHLKDSVCLASDTKQFDSSGSPAKPHTTLQVSGRQGQPTCDCDSVPPGTPPPIESFTFKENQLCRNTCQELHKHSVEQTETAELPASDSINPGNLQLVSELKNPSGSCSVDVSAMFWERAGCKEPCIITACEDVVSLWKALDAWQWEKLYTWHFAEVPVLQIVPVPDVYNLVCVALGNLEIREIRALFCSSDDESEKQVLLKSGNIKAVLGLTKRRLVSSSGTLSDQQVEVMTFAEDGGGKENQFLMPPEETILTFAEVQGMQEALLGTTIMNNIVIWNLKTGQLLKKMHIDDSYQASVCHKAYSEMGLLFIVLSHPCAKESESLRSPVFQLIVINPKTTLSVGVMLYCLPPGQAGRFLEGDVKDHCAAAILTSGTIAIWDLLLGQCTALLPPVSDQHWSFVKWSGTDSHLLAGQKDGNIFVYHYS
notes: Endogenous protein in extracts of human 293T cells, immunoprecipitated with rabbit anti-PALB2 or detected by immunoblot; NCBI NP_078951.2
